Measurements: patent publication US20140087995A1 (published 2014)
Numbered stars: 1 amine (or outer) side, 2 acyl side, 3 side chain; on linkers, the order of the positions; unused ones are H or OH. Bridge positions count the residues as written; N and C are the ends. * marks the point of attachment. C20 diacid = O=C(O)CCCCCCCCCCCCCCCCCCC(=O)*; γGlu = O=C(O)[C@H](CCC(=O)[*:2])N[*:1]

T1: human calcitonin receptor (human, UniProt P30988 25-474)
T1 construct: whole, on cells; Used as membranes prepared from the transfected cells (Assay VII); also called hCTR; hCT
T1 sequence (looked up): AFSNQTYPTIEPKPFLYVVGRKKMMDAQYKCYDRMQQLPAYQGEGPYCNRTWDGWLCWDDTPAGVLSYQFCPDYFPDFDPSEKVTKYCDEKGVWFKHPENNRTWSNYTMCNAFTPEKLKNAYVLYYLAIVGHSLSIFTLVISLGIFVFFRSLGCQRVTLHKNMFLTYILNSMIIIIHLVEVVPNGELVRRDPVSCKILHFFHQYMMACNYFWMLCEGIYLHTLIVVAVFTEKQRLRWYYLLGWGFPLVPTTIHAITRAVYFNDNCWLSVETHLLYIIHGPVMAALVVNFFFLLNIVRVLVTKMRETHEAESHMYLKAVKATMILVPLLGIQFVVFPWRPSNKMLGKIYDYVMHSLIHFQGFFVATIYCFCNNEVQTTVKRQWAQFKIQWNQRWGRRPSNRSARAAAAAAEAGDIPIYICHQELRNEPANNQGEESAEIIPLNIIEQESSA

T2: rat amylin receptor (rat calcitonin receptor + rat RAMP 3) (rat, UniProt P32214 25-516; Q9JJ73 23-147)
T2 construct: whole, on cells; Used as membranes prepared from the transfected cells; also called rAmylin-R; rat amylin 3(a) receptor
T2 sequence (looked up) 1: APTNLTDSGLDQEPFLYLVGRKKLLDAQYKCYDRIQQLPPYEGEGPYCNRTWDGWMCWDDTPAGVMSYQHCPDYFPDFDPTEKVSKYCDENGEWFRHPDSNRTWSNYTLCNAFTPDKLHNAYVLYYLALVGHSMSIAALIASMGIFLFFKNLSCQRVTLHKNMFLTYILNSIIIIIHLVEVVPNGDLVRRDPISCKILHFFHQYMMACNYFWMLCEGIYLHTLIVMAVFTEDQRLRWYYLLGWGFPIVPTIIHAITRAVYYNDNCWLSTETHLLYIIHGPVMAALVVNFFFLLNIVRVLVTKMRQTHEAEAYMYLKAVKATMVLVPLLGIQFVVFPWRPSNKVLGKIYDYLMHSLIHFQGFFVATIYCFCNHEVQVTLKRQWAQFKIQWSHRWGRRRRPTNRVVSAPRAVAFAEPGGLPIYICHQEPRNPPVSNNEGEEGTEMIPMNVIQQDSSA
T2 sequence (looked up) 2: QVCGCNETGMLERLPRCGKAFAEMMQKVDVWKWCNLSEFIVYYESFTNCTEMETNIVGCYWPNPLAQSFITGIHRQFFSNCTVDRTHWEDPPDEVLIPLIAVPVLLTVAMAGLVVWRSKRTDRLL

T3: rat calcitonin receptor (rat, UniProt P32214 25-516)
T3 construct: whole, on cells; Used as membranes prepared from the transfected cells; also called rCTR; rat calcitonin (a) receptor
T3 sequence (looked up): T2 sequence (looked up) 1

B1: N^α1-[(4S)-4-carboxy-4-(19-carboxynonadecanoylamino)butanoyl]-[Glu14,Arg17,Pro21,Pro27,His34]-h-amylin (peptide)
peptide: {C20 diacid-γGlu}-KCNTATCATQRLAEFLRHSSPNFGAIPSSTNVGHNTY-NH2
modifications: disulfide 2-7
SMILES: CC[C@H](C)[C@H](NC(=O)[C@H](C)NC(=O)CNC(=O)[C@H](Cc1ccccc1)NC(=O)[C@H](CC(N)=O)NC(=O)[C@@H]1CCCN1C(=O)[C@H](CO)NC(=O)[C@H](CO)NC(=O)[C@H](Cc1c[nH]cn1)NC(=O)[C@H](CCCNC(=N)N)NC(=O)[C@H](CC(C)C)NC(=O)[C@H](Cc1ccccc1)NC(=O)[C@H](CCC(=O)O)NC(=O)[C@H](C)NC(=O)[C@H](CC(C)C)NC(=O)[C@H](CCCNC(=N)N)NC(=O)[C@H](CCC(N)=O)NC(=O)[C@@H](NC(=O)[C@H](C)NC(=O)[C@@H]1CSSC[C@H](NC(=O)[C@H](CCCCN)NC(=O)CC[C@H](NC(=O)CCCCCCCCCCCCCCCCCCC(=O)O)C(=O)O)C(=O)N[C@@H](CC(N)=O)C(=O)N[C@@H]([C@@H](C)O)C(=O)N[C@@H](C)C(=O)N[C@@H]([C@@H](C)O)C(=O)N1)[C@@H](C)O)C(=O)N1CCC[C@H]1C(=O)N[C@@H](CO)C(=O)N[C@@H](CO)C(=O)N[C@H](C(=O)N[C@@H](CC(N)=O)C(=O)N[C@H](C(=O)NCC(=O)N[C@@H](Cc1c[nH]cn1)C(=O)N[C@@H](CC(N)=O)C(=O)N[C@H](C(=O)N[C@@H](Cc1ccc(O)cc1)C(N)=O)[C@@H](C)O)C(C)C)[C@@H](C)O
notes: Derivative of human amylin; also called compound 17
B2: N^α1-[(4S)-4-carboxy-4-(19-carboxynonadecanoylamino)butanoyl]-[Glu14,Arg17,Pro21,Pro27,Pro34]-h-amylin (peptide)
peptide: {C20 diacid-γGlu}-KCNTATCATQRLAEFLRHSSPNFGAIPSSTNVGPNTY-NH2
modifications: disulfide 2-7
SMILES: CC[C@H](C)[C@H](NC(=O)[C@H](C)NC(=O)CNC(=O)[C@H](Cc1ccccc1)NC(=O)[C@H](CC(N)=O)NC(=O)[C@@H]1CCCN1C(=O)[C@H](CO)NC(=O)[C@H](CO)NC(=O)[C@H](Cc1c[nH]cn1)NC(=O)[C@H](CCCNC(=N)N)NC(=O)[C@H](CC(C)C)NC(=O)[C@H](Cc1ccccc1)NC(=O)[C@H](CCC(=O)O)NC(=O)[C@H](C)NC(=O)[C@H](CC(C)C)NC(=O)[C@H](CCCNC(=N)N)NC(=O)[C@H](CCC(N)=O)NC(=O)[C@@H](NC(=O)[C@H](C)NC(=O)[C@@H]1CSSC[C@H](NC(=O)[C@H](CCCCN)NC(=O)CC[C@H](NC(=O)CCCCCCCCCCCCCCCCCCC(=O)O)C(=O)O)C(=O)N[C@@H](CC(N)=O)C(=O)N[C@@H]([C@@H](C)O)C(=O)N[C@@H](C)C(=O)N[C@@H]([C@@H](C)O)C(=O)N1)[C@@H](C)O)C(=O)N1CCC[C@H]1C(=O)N[C@@H](CO)C(=O)N[C@@H](CO)C(=O)N[C@H](C(=O)N[C@@H](CC(N)=O)C(=O)N[C@H](C(=O)NCC(=O)N1CCC[C@H]1C(=O)N[C@@H](CC(N)=O)C(=O)N[C@H](C(=O)N[C@@H](Cc1ccc(O)cc1)C(N)=O)[C@@H](C)O)C(C)C)[C@@H](C)O
notes: Derivative of human amylin; also called compound 32
B3: N^α1-[(4S)-4-carboxy-4-(19-carboxynonadecanoylamino)butanoyl]-[Glu14,Arg17,Pro21,Pro27,Pro29]-h-amylin (peptide)
peptide: {C20 diacid-γGlu}-KCNTATCATQRLAEFLRHSSPNFGAIPSPTNVGSNTY-NH2
modifications: disulfide 2-7
SMILES: CC[C@H](C)[C@H](NC(=O)[C@H](C)NC(=O)CNC(=O)[C@H](Cc1ccccc1)NC(=O)[C@H](CC(N)=O)NC(=O)[C@@H]1CCCN1C(=O)[C@H](CO)NC(=O)[C@H](CO)NC(=O)[C@H](Cc1c[nH]cn1)NC(=O)[C@H](CCCNC(=N)N)NC(=O)[C@H](CC(C)C)NC(=O)[C@H](Cc1ccccc1)NC(=O)[C@H](CCC(=O)O)NC(=O)[C@H](C)NC(=O)[C@H](CC(C)C)NC(=O)[C@H](CCCNC(=N)N)NC(=O)[C@H](CCC(N)=O)NC(=O)[C@@H](NC(=O)[C@H](C)NC(=O)[C@@H]1CSSC[C@H](NC(=O)[C@H](CCCCN)NC(=O)CC[C@H](NC(=O)CCCCCCCCCCCCCCCCCCC(=O)O)C(=O)O)C(=O)N[C@@H](CC(N)=O)C(=O)N[C@@H]([C@@H](C)O)C(=O)N[C@@H](C)C(=O)N[C@@H]([C@@H](C)O)C(=O)N1)[C@@H](C)O)C(=O)N1CCC[C@H]1C(=O)N[C@@H](CO)C(=O)N1CCC[C@H]1C(=O)N[C@H](C(=O)N[C@@H](CC(N)=O)C(=O)N[C@H](C(=O)NCC(=O)N[C@@H](CO)C(=O)N[C@@H](CC(N)=O)C(=O)N[C@H](C(=O)N[C@@H](Cc1ccc(O)cc1)C(N)=O)[C@@H](C)O)C(C)C)[C@@H](C)O
notes: Derivative of human amylin; also called compound 37
B4: N^α1-[(4S)-4-carboxy-4-(19-carboxynonadecanoylamino)butanoyl]-[Glu14,Arg17,Pro21,Pro27,Pro31]-h-amylin (peptide)
peptide: {C20 diacid-γGlu}-KCNTATCATQRLAEFLRHSSPNFGAIPSSTPVGSNTY-NH2
modifications: disulfide 2-7
SMILES: CC[C@H](C)[C@H](NC(=O)[C@H](C)NC(=O)CNC(=O)[C@H](Cc1ccccc1)NC(=O)[C@H](CC(N)=O)NC(=O)[C@@H]1CCCN1C(=O)[C@H](CO)NC(=O)[C@H](CO)NC(=O)[C@H](Cc1c[nH]cn1)NC(=O)[C@H](CCCNC(=N)N)NC(=O)[C@H](CC(C)C)NC(=O)[C@H](Cc1ccccc1)NC(=O)[C@H](CCC(=O)O)NC(=O)[C@H](C)NC(=O)[C@H](CC(C)C)NC(=O)[C@H](CCCNC(=N)N)NC(=O)[C@H](CCC(N)=O)NC(=O)[C@@H](NC(=O)[C@H](C)NC(=O)[C@@H]1CSSC[C@H](NC(=O)[C@H](CCCCN)NC(=O)CC[C@H](NC(=O)CCCCCCCCCCCCCCCCCCC(=O)O)C(=O)O)C(=O)N[C@@H](CC(N)=O)C(=O)N[C@@H]([C@@H](C)O)C(=O)N[C@@H](C)C(=O)N[C@@H]([C@@H](C)O)C(=O)N1)[C@@H](C)O)C(=O)N1CCC[C@H]1C(=O)N[C@@H](CO)C(=O)N[C@@H](CO)C(=O)N[C@H](C(=O)N1CCC[C@H]1C(=O)N[C@H](C(=O)NCC(=O)N[C@@H](CO)C(=O)N[C@@H](CC(N)=O)C(=O)N[C@H](C(=O)N[C@@H](Cc1ccc(O)cc1)C(N)=O)[C@@H](C)O)C(C)C)[C@@H](C)O
notes: Derivative of human amylin; also called compound 31
B5: N^α1-[(4S)-4-carboxy-4-(19-carboxynonadecanoylamino)butanoyl]-[Glu14,Arg17,Pro21,Pro27,His35]-h-amylin (peptide)
peptide: {C20 diacid-γGlu}-KCNTATCATQRLAEFLRHSSPNFGAIPSSTNVGSHTY-NH2
modifications: disulfide 2-7
SMILES: CC[C@H](C)[C@H](NC(=O)[C@H](C)NC(=O)CNC(=O)[C@H](Cc1ccccc1)NC(=O)[C@H](CC(N)=O)NC(=O)[C@@H]1CCCN1C(=O)[C@H](CO)NC(=O)[C@H](CO)NC(=O)[C@H](Cc1c[nH]cn1)NC(=O)[C@H](CCCNC(=N)N)NC(=O)[C@H](CC(C)C)NC(=O)[C@H](Cc1ccccc1)NC(=O)[C@H](CCC(=O)O)NC(=O)[C@H](C)NC(=O)[C@H](CC(C)C)NC(=O)[C@H](CCCNC(=N)N)NC(=O)[C@H](CCC(N)=O)NC(=O)[C@@H](NC(=O)[C@H](C)NC(=O)[C@@H]1CSSC[C@H](NC(=O)[C@H](CCCCN)NC(=O)CC[C@H](NC(=O)CCCCCCCCCCCCCCCCCCC(=O)O)C(=O)O)C(=O)N[C@@H](CC(N)=O)C(=O)N[C@@H]([C@@H](C)O)C(=O)N[C@@H](C)C(=O)N[C@@H]([C@@H](C)O)C(=O)N1)[C@@H](C)O)C(=O)N1CCC[C@H]1C(=O)N[C@@H](CO)C(=O)N[C@@H](CO)C(=O)N[C@H](C(=O)N[C@@H](CC(N)=O)C(=O)N[C@H](C(=O)NCC(=O)N[C@@H](CO)C(=O)N[C@@H](Cc1c[nH]cn1)C(=O)N[C@H](C(=O)N[C@@H](Cc1ccc(O)cc1)C(N)=O)[C@@H](C)O)C(C)C)[C@@H](C)O
notes: Derivative of human amylin; also called compound 18

molecular target: T1, human calcitonin receptor; test: ratio IC50 human calcitonin receptor / IC50 human amylin receptor (Assays VII and V)
In short: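 IC₅₀ values were derived by one-site competition analysis of SPA counts. Cell membranes (35 ng/μL) with SPA beads were incubated with test compounds for 120 min at 25° C in Hepes buffer, pH 7.4, containing CaCl2, MgCl₂, OA and Tween20.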

B1 was tested. Which “Ratio hCT/hAmylin binding” value did it give?
The value was 12.5.

B2 was tested. Which “Ratio hCT/hAmylin binding” value did it give?
The value was 10.9.

How did the “Ratio hCT/hAmylin binding” value turn out when B3 was run?
The value was 2.3.

How did the “Ratio hCT/hAmylin binding” value turn out when B4 was run?
The value was 16.

For B5, which “Ratio hCT/hAmylin binding” value is on record?
Its value is 9.2.

molecular target: T2, rat amylin receptor (rat calcitonin …); test: SPA competition with 125I-rat amylin, membranes of BHK cells with rat calcitonin receptor + rat RAMP3 (Assay VI)

With B1 as the binder, how does the IC50 read?
Its IC50 is 2.71 nM.

With B2 as the binder, how does the IC50 read?
Its IC50 is 0.176 nM.

With B3 as the binder, how does the IC50 read?
Its IC50 is 0.514 nM.

With B4 as the binder, how does the IC50 read?
Its IC50 is 0.619 nM.

Which IC50 does the source give for B5 here?
The IC50 was 0.476 nM.

molecular target: T3, rat calcitonin receptor; test: ratio IC50 rat calcitonin receptor / IC50 rat amylin receptor (Assays VIII and VI)

B1 was tested. Which “Ratio rCT/rAmylin binding” value did it give?
The value was 35.9.

How did the “Ratio rCT/rAmylin binding” value turn out when B2 was run?
Its value is 34.

With B3 as the binder, how does the “Ratio rCT/rAmylin binding” value read?
Its value is 14.3.

B4 was tested. Which “Ratio rCT/rAmylin binding” value did it give?
Its value is 42.8.

Which “Ratio rCT/rAmylin binding” value does the source give for B5 here?
Its value is 27.3.

molecular target: T3, rat calcitonin receptor; test: SPA competition with 125I-calcitonin, membranes of BHK cells with rat calcitonin receptor (Assay VIII)

For B1, which IC50 is on record?
Its IC50 is 97.2 nM.

How did the IC50 turn out when B2 was run?
Its IC50 is 5.98 nM.

With B3 as the binder, how does the IC50 read?
Its IC50 is 7.35 nM.

For B4, which IC50 is on record?
The IC50 was 26.5 nM.

For B5, which IC50 is on record?
Its IC50 is 13 nM.
